Reference: US10350264B2, “Compositions and methods for modulating NCOA4-mediated autophagic targeting of ferritin” (Dana-Farber Cancer Institute, Inc., priority 2014, dated 2019)
Each block holds one molecule with its values, some of them ahead of it. Ends that are not written are not given here.

Legend:
[1] = molecular target: T1, HERC2-FLAG fragment (F3, HERC2 amino acids 1700-2700) (Homo sapiens, UniProt O95714); experiment: GST pull-down assay of HERC2-FLAG Fragment 3 using GST-NCOA4 fragments; assay type: binding; conditions: 293T lysate expressing HERC2-FLAG F3, anti-FLAG immunoblot; FIG. 12
T1 construct: HERC2-FLAG fragment (F3, HERC2 amino acids 1700-2700) was produced as described in Bekker-Jensen et al; expressed in transfected cells; host or cells: 293T cells (transient transfection, lysate used)
T1 sequence (O95714 1700-2700): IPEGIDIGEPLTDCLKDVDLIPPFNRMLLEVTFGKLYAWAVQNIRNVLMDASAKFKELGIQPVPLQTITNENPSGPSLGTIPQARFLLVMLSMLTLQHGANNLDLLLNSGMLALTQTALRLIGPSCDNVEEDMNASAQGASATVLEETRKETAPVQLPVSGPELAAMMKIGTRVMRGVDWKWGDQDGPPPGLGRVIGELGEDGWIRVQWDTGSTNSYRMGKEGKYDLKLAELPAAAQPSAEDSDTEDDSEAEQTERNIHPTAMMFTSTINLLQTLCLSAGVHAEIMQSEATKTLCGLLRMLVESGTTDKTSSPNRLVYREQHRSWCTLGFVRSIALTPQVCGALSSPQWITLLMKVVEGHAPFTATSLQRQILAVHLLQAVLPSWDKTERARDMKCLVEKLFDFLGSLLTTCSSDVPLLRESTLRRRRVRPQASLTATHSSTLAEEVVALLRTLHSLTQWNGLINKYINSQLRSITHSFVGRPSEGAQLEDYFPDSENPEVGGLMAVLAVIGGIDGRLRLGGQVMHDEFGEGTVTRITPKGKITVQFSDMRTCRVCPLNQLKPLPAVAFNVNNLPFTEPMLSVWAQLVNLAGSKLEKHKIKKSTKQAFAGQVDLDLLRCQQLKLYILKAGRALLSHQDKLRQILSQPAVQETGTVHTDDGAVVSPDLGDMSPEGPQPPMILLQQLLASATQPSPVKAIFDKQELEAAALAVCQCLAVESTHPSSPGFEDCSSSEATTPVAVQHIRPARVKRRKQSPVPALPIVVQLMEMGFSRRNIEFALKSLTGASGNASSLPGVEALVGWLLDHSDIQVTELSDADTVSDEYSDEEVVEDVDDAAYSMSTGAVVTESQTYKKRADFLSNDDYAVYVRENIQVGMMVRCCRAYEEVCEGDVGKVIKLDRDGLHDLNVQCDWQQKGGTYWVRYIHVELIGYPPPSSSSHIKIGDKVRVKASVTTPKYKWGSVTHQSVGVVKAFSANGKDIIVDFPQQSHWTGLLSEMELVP
Experimental: To map the interaction of NCOA-4 with HERC2, the GST-NCOA4 truncation constructs described above were also tested in a GST pull-down assay with HERC2-FLAG expressing 293T cell line. HERC2-FLAG fragment (F3, HERC2 amino acids 1700-2700) was produced as described in Bekker-Jensen et al., Nature Cell Biology (2010) 12; 80-86. The HERC2-FLAG F3 was transiently transfected into 293T cells using standard transfection procedures using PEI (Polysciences, #23966-2).
Lysates were obtained, as above, and incubated with 10 μl of a 50% (v/v) slurry of glutathione Sepharose 4B beads for 30 minutes at 4° C. Beads were washed thoroughly with 150 mM NaCl, 20 mM Tris (pH 7.4), 2 mM DTT, 0.5% (w/v) Nonidet P-40, leaving 50-100 μg of GST-fusion protein bound to the beads. Beads were then mixed with 300 μg of lysate from a HERC2-FLAG expressing 293T cell line, as above. The assay mix was incubated for 2 hours at 4° C., and beads were washed four times with 1 ml wash buffer. Proteins were eluted with SDS sample buffer and analyzed by 4-20% gradient SDS-PAGE and immunoblotting with anti-HERC2 antibody or anti-FLAG antibody, as above. Coomassie stain was used to visualize GST-NCOA4 bands as above.

8988T cells = experiment: NCOA4 protein levels while blocking autophagic flux (immunoblot); assay type: cell-based, human; conditions: CQ or BAF 8 hours, FIG. 2(c)
[2] = molecular target: T2, apo-ferritin purified from equine spleen (Equus caballus, UniProt Q8MIP0); experiment: GST pull-down assay of ferritin using GST-NCOA4 fragments; assay type: binding; conditions: anti-FTH1 immunoblot, FIGS. 7, 8, 11
T2 construct: apo-ferritin purified from equine spleen; purchased Sigma F4503; host or cells: equine spleen
T2 sequence (Q8MIP0 whole entry, the tested form may be a part): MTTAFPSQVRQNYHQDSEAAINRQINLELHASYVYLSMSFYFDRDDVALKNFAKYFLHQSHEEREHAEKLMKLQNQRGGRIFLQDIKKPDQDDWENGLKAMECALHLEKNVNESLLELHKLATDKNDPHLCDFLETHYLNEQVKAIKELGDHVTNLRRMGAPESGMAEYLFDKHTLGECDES
T2 sequence (P02791 2-175 partner limits assumed): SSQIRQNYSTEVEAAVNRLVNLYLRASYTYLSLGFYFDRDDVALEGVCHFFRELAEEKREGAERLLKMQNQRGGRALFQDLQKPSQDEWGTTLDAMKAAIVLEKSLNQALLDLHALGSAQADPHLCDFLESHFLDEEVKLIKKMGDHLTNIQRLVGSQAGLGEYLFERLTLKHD
Text: GST-tagged NCOA4 constructs were also made to probe the interactions of C-terminal portions of NCOA4 with ferritin. NCOA4-truncation constructs were produced using Gateway cloning (Invitrogen, Life Technologies, catalog #11789-013 and 11791-019) into a pDEST60 N-terminal GST fusion plasmid (GST-NCOA4) from EMD Millipore (Gateway Nova pET-60-DEST, product #71851-3) and transformed in E. coli BL21 (DE3) cells (New England Biosciences, C2527I).
NCOA4 truncation constructs were designed based on NCBI reference sequence: NP_001138735.1 (SEQ ID NO: 4). In particular, fragments of SEQ ID NO: 4 consisting of amino acids (aa) 1-245, aa 235-614, aa 235-560, aa 235-401, aa 383-560, aa 545-614, aa 383-522, aa 510-560, aa 383-436, aa 436-485, aa 475-522, aa 475-500, aa 480-500, aa 480-504, aa 485-509, aa 490-514, aa 495-522 were designed. Protein expression in the DE3 cells was induced with 1 mM isopropyl-beta-D-thiogalactopyranoside (IPTG) (Sigma, I6758-10 G) for 3 hours at 37° C. Cells were collected by centrifugation, re-suspended in 25 mM Tris-HCl (pH 7.4), 10% (w/v) sucrose and lysed with a single freeze-thaw cycle followed by sonication. After centrifugation, a GST pull-down assay was performed.
In the GST pull-down assay, lysates were incubated with 10 μl of a 50% (v/v) slurry of glutathione Sepharose 4B beads (GE Healthcare Lifesciences, 17-0756-01) for 30 minutes at 4° C. Beads were washed thoroughly with 150 mM NaCl, 20 mM Tris (pH 7.4), 2 mM dithiothreitol (DTT), 0.5% (w/v) Nonidet P-40, leaving 50-100 μg of GST-fusion protein bound to the beads. Beads were then mixed with 0.5-2 μg of apo-ferritin purified from equine spleen (Sigma F4503) or recombinant human FTH1 or FTL produced in Rosetta E. coli (EMD Millipore, 70953-3). The assay mix was incubated for 2 hours at 4° C., and beads were washed four times with 1 ml wash buffer. Proteins were eluted with SDS sample buffer and analyzed by 4-20% gradient SDS-PAGE and immunoblotting with anti-FTH1 antibody (as above) or anti-FLAG antibody (Sigma, F1804-200 UG). Pounceau stain was used to visualize GST-NCOA4 bands. (Pounceau, Sigma, P7170-1 L, protocol as per product manual).

[3] = molecular target: T3, ferritin purified from horse spleen (mixture of FTH1 and FTL subunits) (Equus caballus, UniProt Q8MIP0); experiment: anti-MYC immunoprecipitation of in vitro translated MYC-NCOA4 constructs incubated with ferritin; assay type: binding; conditions: anti-MYC IP, anti-FTH1 immunoblot, FIG. 5
T3 construct: ferritin purified from horse spleen; purchased Sigma A3641-100 mg; host or cells: horse spleen
T3 sequence (Q8MIP0 whole entry): as the sequence (Q8MIP0 whole entry, the tested form may be a part) above
T3 sequence (P02791 2-175 partner limits assumed): as the sequence (P02791 2-175 partner limits assumed) above
Experimental: To probe the interaction between ferritin and NCOA4, initial binding assays using MYC-tagged NCOA4 full-length and truncation constructs produced using an in vitro translation (“IVT”) system were conducted. MYC-NCOA4 fragments were cloned using PCR into a modified T7 cell-free expression vector (pT7CFE1-NMyc, #88863, Thermo Scientific). 1-Step Human Coupled IVT Kit—DNA from Thermo Scientific (product #88881) was used to produce MYC-tagged NCOA4 constructs as described in the product manual. Apoferritin (Sigma, A3641-100 mg) was added in a pull-down assay using anti-c-Myc Agarose Affinity Gel antibody produced in rabbit (Sigma, A7470-1 ML). Affinity purification reactions were washed thoroughly with 150 mM NaCl, 20 mM Tris (pH 7.4), and 2 mM dithiothreitol. Proteins were eluted with SDS sample buffer and analyzed by 4-20% gradient SDS-PAGE and immunoblotting with anti-FTH1 antibody (Cell Signaling 3998; Western blot 1:1,000) or anti-MYC antibody (Santa Cruz Sc-40; western blot 1:1,000).
The full-length, N-terminal (amino acids (aa) 1-245 of SEQ ID NO: 4) and C-terminal (aa 235-614 of SEQ ID NO:4) MYC-NCOA4 were incubated with ferritin purified from horse spleen (Apoferritin (Sigma, A3641-100 mg), consisting of a mixture of FTH1 and FTL subunits) and anti-MYC immunoprecipitation was performed followed by immunoblotting as described above.

Molecule: SMVTEDWLVQNHQDPCKVEEVCRANEPCTSFAECVCDENCEKEALYKWLLKKEG (Homo sapien) [aa 383-436]
binding of GST-NCOA4 fragment to HERC2-FLAG [1]: bound to HERC2-FLAG

Molecule: CO/C1=C\C(C)=C\[C@@H](C)[C@@H](O)[C@@H](C)C/C(C)=C/C=C/[C@H](OC)[C@@H]([C@@H](C)[C@@H](O)[C@H](C)[C@@]2(O)C[C@@H](O)[C@H](C)[C@@H](C(C)C)O2)OC1=O [Bafilomycin A1 (BAF), Bafilomycin A1]
NCOA4 protein levels (8988T cells): markedly increased

Molecule: aa 1-614: full-length human NCOA4 (NP_001138735.1), in vitro translated
association of MYC-NCOA4 construct with ferritin [3]: associated with ferritin
association of MYC-NCOA4 construct with ferritin ([3]; listed as Full-length NCOA4): bind to ferritin

B1: NCOAB: naturally occurring transcript variant of NCOA4 consisting of amino acids 1-238 and 555-614 (protein)
chain: MNTFQDQSGSSSNREPLLRCSDARRDLELAIGGVLRAEQQIKDNLREVKAQIHSCISRHLECLRSREVWLYEQVDLIYQLKEETLQQQAQQLYSLLGQFNCLTHQLECTQNKDLANQVSVCLERLGSLTLKPEDSTVLLFEADTITLRQTITTFGSLKTIQIPEHLMAHASSANIGPFLEKRGCISMPEQKSASGIVAVPFSEWLLGSKPASGYQAPYIPSTDPQDWLTQKQTLENSQGEDKWLLRKKAQEVLLNSPLQEEHNFPPDHYGLPAVCDLFACMQLKVDKEKWLYRTPLQM
modifications: left off: small tags and cut ends
association of MYC-NCOA4 construct with ferritin [3]: did not bind ferritin

B3: N-terminal MYC-NCOA4: NCOA4 N-terminal fragment, amino acids 1-245 of SEQ ID NO: 4 (protein)
chain: MNTFQDQSGSSSNREPLLRCSDARRDLELAIGGVLRAEQQIKDNLREVKAQIHSCISRHLECLRSREVWLYEQVDLIYQLKEETLQQQAQQLYSLLGQFNCLTHQLECTQNKDLANQVSVCLERLGSLTLKPEDSTVLLFEADTITLRQTITTFGSLKTIQIPEHLMAHASSANIGPFLEKRGCISMPEQKSASGIVAVPFSEWLLGSKPASGYQAPYIPSTDPQDWLTQKQTLENSQTSSRACN
modifications: N-terminal MYC tag; Homo sapien
association of MYC-NCOA4 construct with ferritin [3]: did not associate with ferritin

B4: aa 235-560: fragment of NCOA4 SEQ ID NO: 4 (protein)
chain: ENSQTSSRACNFFNNVGGNLKGLENWLLKSEKSSYQKCNSHSTTSSFSIEMEKVGDQELPDQDEMDLSDWLVTPQESHKLRKPENGSRETSEKFKLLFQSYNVNDWLVKTDSCTNCQGNQPKGVEIENLGNLKCLNDHLEAKKPLSTPSMVTEDWLVQNHQDPCKVEEVCRANEPCTSFAECVCDENCEKEALYKWLLKKEGKDKNGMPVEPKPEPEKHKDSLNMWLCPRKEVIEQTKAPKAMTPSRIADSFQVIKNSPLSEWLIRPPYKEGSPKEVPGTEDRAGKQKFKSPMNTSWCSFNTADWVLPGKKMGNLSQLSSGEDKWL
modifications: Homo sapien
binding of GST-NCOA4 fragment to ferritin [2]: bound to ferritin

Second part, the molecule after the results:

binding of GST-NCOA4 fragment to ferritin [2]: bound to ferritin
Molecule: SFQVIKNSPLSEWLIRPPYKEGSPK (Homo sapien) [aa 485-509]

association of MYC-NCOA4 construct with ferritin [3]: associated with ferritin
Molecule: aa 555-614: printed as C-terminal MYC-NCOA4; probably only the C-terminal part of NCOA4B ({MYC tag}-GEDKWLLRKKAQEVLLNSPLQEEHNFPPDHYGLPAVCDLFACMQLKVDKEKWLYRTPLQM; cysteine pairing not given here)

binding of GST-NCOA4 fragment to ferritin [2]: bound to ferritin
binding of GST-NCOA4 fragment to HERC2-FLAG [1]: binds to HERC2 fragment
B2: aa 383-560: fragment of NCOA4 SEQ ID NO: 4 (protein)
chain: SMVTEDWLVQNHQDPCKVEEVCRANEPCTSFAECVCDENCEKEALYKWLLKKEGKDKNGMPVEPKPEPEKHKDSLNMWLCPRKEVIEQTKAPKAMTPSRIADSFQVIKNSPLSEWLIRPPYKEGSPKEVPGTEDRAGKQKFKSPMNTSWCSFNTADWVLPGKKMGNLSQLSSGEDKWL
modifications: Homo sapien
